Experimental data from US20210363224A1 (CONSEJO SUPERIOR DE INVESTIGACIONES CIENT FICAS, published 2021).

Biological target: T1, Recombinant human IL13 (PeproTech) (human, UniProt P35225 35-146, limits assumed)
T1 construct: Bought reagent; also called interleukin 13
Assay: SPR, BIAcore 3000, IL-13 amine-coupled to CM5 sensor chip (7700 RU), peptide as analyte
Experimental: Binding of D1 peptide to IL-13 was monitored by surface plasmon resonance on a BIAcore 3000 instrument (BIAcore Inc, Switzerland). IL-13 was covalently amino coupled to a CM-5 sensor chip. An immobilization level of 7700 RU was obtained. A nonderivatized flow cell was used as a control. The interaction between D1 peptide and the immobilized IL13 was determined by changes in the RU at different D1 concentrations.
A direct quantitative analytical method as Biacore was used to determine the affinity of the D1 peptide binding to IL-13 (FIG. 3C). Some limitations in the quantitative adjustment to the established models of the Biacore instrument caused a difficult interpretation of the results and impede an accurate determination of the affinity.

T1 sequence (P35225 35-146 limits assumed): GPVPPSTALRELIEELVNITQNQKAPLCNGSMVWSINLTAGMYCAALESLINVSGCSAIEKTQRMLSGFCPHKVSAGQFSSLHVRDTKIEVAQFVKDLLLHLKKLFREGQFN

B1: IL13Rα2D1 peptide (GSETWKTIITKN) (peptide)
peptide: GSETWKTIITKN
notes: Made by solid phase synthesis; also called peptide IL13Rα2 D1; L-version
Q: B1 was tested. Which Kd did it give?
A: ~100 µM
